For the assay, the target named is T1, MUC1 (UniProt P15941 24-1255, limits assumed).
T1 construct: whole, on cells; also called B16MUC1; C57MUC1
The assay is described as follows: flow cytometry of Fab on C57MUC1 cells (murine + MUC1). (In flow cytometry, cells or beads pass a laser one at a time.)

Experimental findings from patent publication US20040151724A1 (published 2004) are described below.

T1 sequence (P15941 24-1255 limits assumed): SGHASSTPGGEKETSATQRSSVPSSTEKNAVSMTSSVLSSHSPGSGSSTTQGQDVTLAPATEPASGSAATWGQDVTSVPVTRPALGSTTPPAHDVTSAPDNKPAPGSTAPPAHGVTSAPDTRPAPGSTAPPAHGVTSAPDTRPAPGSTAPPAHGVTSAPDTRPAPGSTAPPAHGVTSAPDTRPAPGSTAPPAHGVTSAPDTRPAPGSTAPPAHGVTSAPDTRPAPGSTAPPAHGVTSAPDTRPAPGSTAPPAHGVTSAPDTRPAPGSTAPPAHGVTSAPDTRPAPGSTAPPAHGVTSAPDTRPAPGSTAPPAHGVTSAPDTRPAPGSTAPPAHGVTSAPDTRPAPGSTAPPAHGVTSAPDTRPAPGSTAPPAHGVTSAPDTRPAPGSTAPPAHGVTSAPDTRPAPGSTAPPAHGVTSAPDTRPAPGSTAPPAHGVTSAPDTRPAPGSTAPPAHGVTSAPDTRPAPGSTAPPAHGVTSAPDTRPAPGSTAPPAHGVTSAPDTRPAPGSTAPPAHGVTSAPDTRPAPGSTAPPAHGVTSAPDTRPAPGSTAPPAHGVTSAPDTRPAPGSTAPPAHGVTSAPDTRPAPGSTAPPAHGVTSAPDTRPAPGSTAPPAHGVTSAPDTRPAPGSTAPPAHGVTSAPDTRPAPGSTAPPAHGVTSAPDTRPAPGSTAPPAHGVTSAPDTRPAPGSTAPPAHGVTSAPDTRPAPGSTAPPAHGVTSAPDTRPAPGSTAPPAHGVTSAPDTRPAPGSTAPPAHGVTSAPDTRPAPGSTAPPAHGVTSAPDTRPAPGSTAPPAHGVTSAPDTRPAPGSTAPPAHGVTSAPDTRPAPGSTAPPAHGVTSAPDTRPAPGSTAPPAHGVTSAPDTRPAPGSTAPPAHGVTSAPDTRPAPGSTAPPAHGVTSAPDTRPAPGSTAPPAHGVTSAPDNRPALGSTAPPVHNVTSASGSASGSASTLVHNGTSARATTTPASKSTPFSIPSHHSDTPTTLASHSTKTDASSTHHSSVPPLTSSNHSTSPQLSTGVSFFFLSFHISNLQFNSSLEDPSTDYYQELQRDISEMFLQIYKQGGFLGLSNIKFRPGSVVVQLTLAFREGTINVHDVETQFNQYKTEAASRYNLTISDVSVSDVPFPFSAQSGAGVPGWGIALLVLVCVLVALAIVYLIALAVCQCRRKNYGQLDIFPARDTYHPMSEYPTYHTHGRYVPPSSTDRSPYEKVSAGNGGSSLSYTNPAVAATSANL

B1: Fab 14.6.20 (Fab, V domains shown)
VH: EVQLVQSGGGLVQPGGSLRLSCTASGFIFNNYAMSWVRQAPGKGLEWVSGISTGGSSTYHADSVKGRFTISRDNFKKTLWLQMNSLTPEDAAVYYCARHANFWNGYLEKGAIDYWGQGTLVTVSS
VL: ELQMTQSPSTLSASVGDRVTITCRASHSVSGWLAWYQQKPGKAPKLLSYEPSSLESGVPSRFSGSGSGTEFTLTISSLQPEDFATYYCQESYRITSLTFGGGTKVETRR
notes: also called Fab clone 14.6.20
In the case of B1, the binding result is reported as “no binding”.
